Results from IntAct's records for PubMed 19523115.

B1: Solute carrier family 2, facilitated glucose transporter member 8 (Mus musculus), Q9JIF3 (parent)
chain: MSPEDPQETQPLLRPPEARTPRGRRVFLASFAAALGPLSFGFALGYSSPAIPSLRRTAPPALRLGDNAASWFGAVVTLGAAAGGILGGWLLDRAGRKLSLLLCTVPFVTGFAVITAARDVWMLLGGRLLTGLACGVASLVAPVYISEIAYPAVRGLLGSCVQLMVVTGILLAYVAGWVLEWRWLAVLGCVPPTLMLLLMCYMPETPRFLLTQHQYQEAMAALRFLWGSEEGWEEPPVGAEHQGFQLALLRRPGIYKPLIIGISLMVFQQLSGVNAIMFYANSIFEEAKFKDSSLASVTVGIIQVLFTAVAALIMDRAGRRLLLALSGVIMVFSMSAFGTYFKLTQSLPSNSSHVGLVPIAAEPVDVQVGLAWLAVGSMCLFIAGFAVGWGPIPWLLMSEIFPLHVKGVATGICVLTNWFMAFLVTKEFSSVMEMLRPYGAFWLTAAFCALSVLFTLTVVPETKGRTLEQVTAHFEGR
partner: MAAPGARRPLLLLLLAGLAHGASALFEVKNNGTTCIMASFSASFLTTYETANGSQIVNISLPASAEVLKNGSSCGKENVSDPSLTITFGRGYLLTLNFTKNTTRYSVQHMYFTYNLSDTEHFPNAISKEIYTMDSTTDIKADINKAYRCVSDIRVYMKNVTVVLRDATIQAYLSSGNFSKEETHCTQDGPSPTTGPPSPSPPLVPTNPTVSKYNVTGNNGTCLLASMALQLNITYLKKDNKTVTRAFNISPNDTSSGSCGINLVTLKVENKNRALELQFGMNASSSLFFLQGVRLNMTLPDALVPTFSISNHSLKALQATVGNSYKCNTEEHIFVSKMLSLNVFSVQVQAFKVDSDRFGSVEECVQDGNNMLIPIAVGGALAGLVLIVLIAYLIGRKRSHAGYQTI
B2: Solute carrier family 2, facilitated glucose transporter member 8 (Mus musculus), Q9JIF3 (parent)
chain: B1 chain

Variants of: B1
Conditions: with lamp1_mouse Lamp1, P11438

effect of a mutation on the interaction	Variant
disrupting interaction	L12A

Variants of: B2
Conditions: with ap1g1_human AP1G1, O43747
Sequence of ap1g1_human AP1G1, O43747 (O43747 whole entry): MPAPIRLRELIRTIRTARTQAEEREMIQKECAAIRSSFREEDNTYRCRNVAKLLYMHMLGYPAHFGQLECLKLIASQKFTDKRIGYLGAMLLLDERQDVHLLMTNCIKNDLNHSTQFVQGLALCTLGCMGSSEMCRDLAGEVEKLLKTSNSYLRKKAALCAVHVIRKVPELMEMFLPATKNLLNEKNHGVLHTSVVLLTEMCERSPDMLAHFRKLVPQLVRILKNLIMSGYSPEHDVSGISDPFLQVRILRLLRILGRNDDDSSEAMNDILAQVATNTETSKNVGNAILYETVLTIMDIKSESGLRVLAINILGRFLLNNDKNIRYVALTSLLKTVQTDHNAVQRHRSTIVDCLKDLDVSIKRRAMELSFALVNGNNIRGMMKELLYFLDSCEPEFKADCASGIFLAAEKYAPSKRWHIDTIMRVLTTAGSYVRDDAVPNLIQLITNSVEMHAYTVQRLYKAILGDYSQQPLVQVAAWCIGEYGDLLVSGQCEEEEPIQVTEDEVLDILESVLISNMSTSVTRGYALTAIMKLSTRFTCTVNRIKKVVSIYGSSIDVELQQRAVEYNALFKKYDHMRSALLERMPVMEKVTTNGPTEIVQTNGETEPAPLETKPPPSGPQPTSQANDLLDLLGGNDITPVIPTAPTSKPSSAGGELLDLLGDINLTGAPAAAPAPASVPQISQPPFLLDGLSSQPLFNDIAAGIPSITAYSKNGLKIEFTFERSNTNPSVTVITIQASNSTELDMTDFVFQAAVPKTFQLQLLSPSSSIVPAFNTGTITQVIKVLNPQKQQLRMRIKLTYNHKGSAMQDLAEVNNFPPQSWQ

effect of a mutation on the interaction	Variant
disrupting interaction	L12A

Variants of: B2
Conditions: with ap1g1_mouse Ap1g1, P22892
Sequence of ap1g1_mouse Ap1g1, P22892 (P22892 whole entry): as the sequence (O43747 whole entry) above, with T596S, S650A, N664T, A674T, A702P, I769V counted along it

effect of a mutation on the interaction	Variant
disrupting interaction	L12A

Variants of: B2
Conditions: with ap2b1_rat Ap2b1, P62944
Sequence of ap2b1_rat Ap2b1, P62944 (P62944 whole entry): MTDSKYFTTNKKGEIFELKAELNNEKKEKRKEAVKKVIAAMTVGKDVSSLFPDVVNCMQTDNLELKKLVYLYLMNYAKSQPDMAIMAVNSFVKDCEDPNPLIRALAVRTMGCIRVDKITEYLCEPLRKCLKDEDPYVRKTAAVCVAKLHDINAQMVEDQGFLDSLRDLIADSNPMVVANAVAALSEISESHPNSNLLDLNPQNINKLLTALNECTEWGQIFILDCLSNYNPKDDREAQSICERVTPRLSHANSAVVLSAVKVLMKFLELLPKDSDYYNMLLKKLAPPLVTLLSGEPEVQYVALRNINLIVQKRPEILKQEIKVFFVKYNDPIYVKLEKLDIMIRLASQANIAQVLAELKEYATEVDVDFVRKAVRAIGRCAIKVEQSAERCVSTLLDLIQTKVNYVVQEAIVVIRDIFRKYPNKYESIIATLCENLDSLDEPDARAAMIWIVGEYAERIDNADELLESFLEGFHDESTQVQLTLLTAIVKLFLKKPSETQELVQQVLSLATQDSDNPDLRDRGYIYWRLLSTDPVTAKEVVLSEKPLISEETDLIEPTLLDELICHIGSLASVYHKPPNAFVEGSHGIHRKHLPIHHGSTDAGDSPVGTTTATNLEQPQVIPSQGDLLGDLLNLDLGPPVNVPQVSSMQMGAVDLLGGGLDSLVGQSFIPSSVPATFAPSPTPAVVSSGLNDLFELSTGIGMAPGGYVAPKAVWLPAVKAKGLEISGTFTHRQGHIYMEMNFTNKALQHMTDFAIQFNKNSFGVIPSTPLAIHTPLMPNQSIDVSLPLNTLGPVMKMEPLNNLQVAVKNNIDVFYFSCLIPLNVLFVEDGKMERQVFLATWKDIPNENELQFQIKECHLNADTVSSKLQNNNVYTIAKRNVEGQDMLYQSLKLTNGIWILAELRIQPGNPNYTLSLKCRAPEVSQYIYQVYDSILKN

effect of a mutation on the interaction	Variant
decreasing interaction	L12A

Variants of: B2
Conditions: with ap2b1_mouse Ap2b1, Q9DBG3
Sequence of ap2b1_mouse Ap2b1, Q9DBG3 (Q9DBG3 whole entry): as the sequence (P62944 whole entry) above, with A612T counted along it

effect of a mutation on the interaction	Variant
increasing interaction	L13A
